Assay results as given in paper PMC3338918.

Key:
human VEGFR1-hFc (human) = human VEGFR1-hFc (human) (UniProt P17948)
[1] = target: VEGF Trap (aflibercept) (human); assay: SPR; Biacore 3000, CM5 chip, 25°C, HBS-T (10 mM Hepes, 150 mM NaCl, 3.4 mM EDTA, 0.05% polysorbate 20, pH 7.4); VEGF Trap or receptor-Fc captured at low density on amine-coupled Protein A, ligands injected (1.0–0.062 nM VEGF-A, 2.5–0.156 nM VEGF-B(10-108), 5.0–0.078 nM PlGF); kd of VEGF-A ligands by the 'fixed kd' procedure on a Biacore 2000 (~2–3 h); KD = kd/ka
Chain of VEGF Trap (aflibercept) (human) (chain, INN chains, looked up, as listed by the source): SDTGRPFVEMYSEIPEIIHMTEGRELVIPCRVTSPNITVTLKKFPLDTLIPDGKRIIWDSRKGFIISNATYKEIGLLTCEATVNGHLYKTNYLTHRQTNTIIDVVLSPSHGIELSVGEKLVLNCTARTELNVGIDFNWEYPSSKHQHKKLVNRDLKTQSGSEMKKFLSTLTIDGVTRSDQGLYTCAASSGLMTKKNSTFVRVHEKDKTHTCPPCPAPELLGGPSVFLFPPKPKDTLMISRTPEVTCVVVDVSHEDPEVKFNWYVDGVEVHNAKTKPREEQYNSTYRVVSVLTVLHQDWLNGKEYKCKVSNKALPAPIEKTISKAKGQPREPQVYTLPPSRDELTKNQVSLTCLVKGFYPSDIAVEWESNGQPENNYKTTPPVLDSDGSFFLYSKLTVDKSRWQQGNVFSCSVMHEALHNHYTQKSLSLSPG

[2] = target: VEGF Trap (aflibercept) (human); assay: KinExA solution equilibrium assay; KinExA 3000, room temperature (25°C); VEGF Trap (1–50 pM) equilibrated 10–96 h with varying ligand; unbound inhibitor captured on VEGF-A165-coupled Azlactone beads and detected with Cy5 anti-human IgG; one-site homogeneous binding model

Chain of human VEGFR1-hFc (human) (P17948 27-758): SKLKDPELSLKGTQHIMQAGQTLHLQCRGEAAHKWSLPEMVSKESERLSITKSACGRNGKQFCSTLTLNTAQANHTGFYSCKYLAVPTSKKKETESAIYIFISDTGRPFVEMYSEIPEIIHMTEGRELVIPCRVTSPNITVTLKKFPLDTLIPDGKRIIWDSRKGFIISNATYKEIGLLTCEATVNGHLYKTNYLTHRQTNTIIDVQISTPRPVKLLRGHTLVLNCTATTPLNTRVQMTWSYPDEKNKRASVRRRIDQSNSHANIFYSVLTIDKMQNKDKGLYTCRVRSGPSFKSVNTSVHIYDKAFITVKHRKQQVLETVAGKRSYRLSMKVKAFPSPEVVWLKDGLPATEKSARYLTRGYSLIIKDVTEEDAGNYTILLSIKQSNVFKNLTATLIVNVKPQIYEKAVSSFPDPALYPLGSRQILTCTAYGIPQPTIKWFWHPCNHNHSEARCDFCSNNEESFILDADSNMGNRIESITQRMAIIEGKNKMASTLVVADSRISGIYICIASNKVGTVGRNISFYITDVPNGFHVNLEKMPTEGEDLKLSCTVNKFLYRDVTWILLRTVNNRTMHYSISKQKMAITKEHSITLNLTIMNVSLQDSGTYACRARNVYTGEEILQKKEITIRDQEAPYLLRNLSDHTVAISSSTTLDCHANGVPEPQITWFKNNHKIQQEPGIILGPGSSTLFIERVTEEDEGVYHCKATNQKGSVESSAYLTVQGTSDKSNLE

EC50 of luciferase activation in HEK293/VEGFR1 cells (dose response, 0.022 pM to 4.0 nM) (human VEGFR1-hFc (human)) [pM] | Kd [1] [nM] | koff [1] [s⁻¹] | kon [1] [M⁻¹ s⁻¹] | Kd [2] [nM] | Binder
10 | 0.00332 | – | – | – | murine PlGF-2 (ligand) VHSQGALSAGNNSTEVEVVPFNEVWGRSYCRPMEKLVYILDEYPDEVSHIFSPSCVLLSRCSGCCGDEGLHCVPIKTANITMQILKIPPNRDPHFYVEMTFSQDVLCECRPILETTKAERRKTKGKRKRSRNSQTEEPHP
29 | 0.0389 | 6.81e-05 | 1.75e+06 | 0.0207 | human PlGF-2 (ligand) LPAVPPQQWALSAGNGSSEVEVVPFQEVWGRSYCRALERLVDVVSEYPSEVEHMFSPSCVSLLRCTGCCGDENLHCVPVETANVTMQLLKIRSGDRPSYVELTFSQHVRCECRPLREKMKPERRRPKGRGKRRREKQRPTDCHLCGDAVPRR
